Experiments:
EPHB1 = EPHB1 (UniProt P54762); assay: phosphorylation enrichment, bacterial display (enrichment ratio); higher = better substrate or ligand; peptides without Tyr show the background
Fes = Fes (UniProt P07332); assay: as above
AncSZ = assay: as above
Hck = Hck (UniProt P08631); assay: as above
Fer (mouse) = assay: as above
MERTK = MERTK (UniProt Q12866); assay: as above
c-Abl (mouse) = assay: as above
FGFR1 = FGFR1 (UniProt P11362); assay: as above
Jak2 = Jak2 (UniProt O60674); assay: as above
EPHB2 = EPHB2 (UniProt P29323); assay: as above
FGFR3 = FGFR3 (UniProt P22607); assay: as above
c-Src = assay: as above
Fyn = Fyn (UniProt P06241); assay: as above
c-Src SH2 = assay: SH2 binding enrichment of the phosphorylated peptide, bacterial display (enrichment ratio); higher = better substrate or ligand; peptides without Tyr show the background
Grb2 SH2 = Grb2 SH2 (UniProt P62993); assay: as above
SHP2-C SH2 = assay: as above
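For SH2 binding enrichment of the phosphorylated peptide, bacterial display in this document: peptide library displayed on the E. coli surface as eCPX fusions, selected cells deep-sequenced, score is each peptide's frequency after selection divided by its frequency in the input.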
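For phosphorylation enrichment, bacterial display in this document: 11-residue human phosphosite peptides and single-mutation variants displayed on the E. coli surface, counted by deep sequencing, each peptide's frequency after selection divided by its frequency in the unselected input library; frequency after pTyr selection over input frequency; kinase dosed for 20-30% of maximal phosphorylation in three min.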

FGFR3, sequence (P22607 whole entry, looked up): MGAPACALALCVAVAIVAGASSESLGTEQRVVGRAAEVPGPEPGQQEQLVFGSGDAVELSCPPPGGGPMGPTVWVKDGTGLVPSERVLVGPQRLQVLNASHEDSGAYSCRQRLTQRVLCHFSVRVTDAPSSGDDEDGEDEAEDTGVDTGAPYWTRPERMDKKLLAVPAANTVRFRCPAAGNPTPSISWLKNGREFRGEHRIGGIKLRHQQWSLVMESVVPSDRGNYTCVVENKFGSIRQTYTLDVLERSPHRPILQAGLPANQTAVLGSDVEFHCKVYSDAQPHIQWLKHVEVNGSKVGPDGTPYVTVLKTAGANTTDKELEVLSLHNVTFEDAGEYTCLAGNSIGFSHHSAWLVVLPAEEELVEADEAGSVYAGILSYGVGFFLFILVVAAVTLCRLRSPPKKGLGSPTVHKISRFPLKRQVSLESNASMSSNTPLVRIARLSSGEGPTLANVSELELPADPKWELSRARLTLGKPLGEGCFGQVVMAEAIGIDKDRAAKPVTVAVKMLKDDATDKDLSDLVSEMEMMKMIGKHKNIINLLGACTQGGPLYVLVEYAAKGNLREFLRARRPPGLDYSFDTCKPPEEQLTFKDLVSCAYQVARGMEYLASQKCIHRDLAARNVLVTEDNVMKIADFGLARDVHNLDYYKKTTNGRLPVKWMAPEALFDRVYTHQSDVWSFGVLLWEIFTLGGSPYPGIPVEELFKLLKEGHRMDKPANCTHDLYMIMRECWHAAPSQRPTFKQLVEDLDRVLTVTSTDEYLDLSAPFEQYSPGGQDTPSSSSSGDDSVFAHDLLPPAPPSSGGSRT
Fes, sequence (P07332 whole entry, looked up): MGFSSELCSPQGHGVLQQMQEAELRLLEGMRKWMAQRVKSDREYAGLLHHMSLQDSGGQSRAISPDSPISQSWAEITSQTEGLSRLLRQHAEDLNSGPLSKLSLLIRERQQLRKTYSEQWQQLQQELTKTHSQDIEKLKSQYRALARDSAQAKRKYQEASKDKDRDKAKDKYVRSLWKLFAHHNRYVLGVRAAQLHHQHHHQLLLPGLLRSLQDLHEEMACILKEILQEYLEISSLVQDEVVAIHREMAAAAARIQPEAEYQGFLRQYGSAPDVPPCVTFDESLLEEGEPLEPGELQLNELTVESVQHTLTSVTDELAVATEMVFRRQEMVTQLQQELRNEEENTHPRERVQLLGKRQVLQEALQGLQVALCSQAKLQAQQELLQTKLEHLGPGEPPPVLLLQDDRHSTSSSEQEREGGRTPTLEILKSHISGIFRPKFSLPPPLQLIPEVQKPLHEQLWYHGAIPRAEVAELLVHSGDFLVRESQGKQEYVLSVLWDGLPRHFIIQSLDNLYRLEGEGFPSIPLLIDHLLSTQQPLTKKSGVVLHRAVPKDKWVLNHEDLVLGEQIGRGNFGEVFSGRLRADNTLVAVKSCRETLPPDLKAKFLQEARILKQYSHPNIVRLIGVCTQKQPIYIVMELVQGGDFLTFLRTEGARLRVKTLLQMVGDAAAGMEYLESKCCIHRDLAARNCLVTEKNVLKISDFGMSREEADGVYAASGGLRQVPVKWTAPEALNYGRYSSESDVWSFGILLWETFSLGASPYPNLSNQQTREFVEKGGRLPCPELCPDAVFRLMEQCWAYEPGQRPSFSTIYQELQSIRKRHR
MERTK, sequence (Q12866 whole entry, looked up): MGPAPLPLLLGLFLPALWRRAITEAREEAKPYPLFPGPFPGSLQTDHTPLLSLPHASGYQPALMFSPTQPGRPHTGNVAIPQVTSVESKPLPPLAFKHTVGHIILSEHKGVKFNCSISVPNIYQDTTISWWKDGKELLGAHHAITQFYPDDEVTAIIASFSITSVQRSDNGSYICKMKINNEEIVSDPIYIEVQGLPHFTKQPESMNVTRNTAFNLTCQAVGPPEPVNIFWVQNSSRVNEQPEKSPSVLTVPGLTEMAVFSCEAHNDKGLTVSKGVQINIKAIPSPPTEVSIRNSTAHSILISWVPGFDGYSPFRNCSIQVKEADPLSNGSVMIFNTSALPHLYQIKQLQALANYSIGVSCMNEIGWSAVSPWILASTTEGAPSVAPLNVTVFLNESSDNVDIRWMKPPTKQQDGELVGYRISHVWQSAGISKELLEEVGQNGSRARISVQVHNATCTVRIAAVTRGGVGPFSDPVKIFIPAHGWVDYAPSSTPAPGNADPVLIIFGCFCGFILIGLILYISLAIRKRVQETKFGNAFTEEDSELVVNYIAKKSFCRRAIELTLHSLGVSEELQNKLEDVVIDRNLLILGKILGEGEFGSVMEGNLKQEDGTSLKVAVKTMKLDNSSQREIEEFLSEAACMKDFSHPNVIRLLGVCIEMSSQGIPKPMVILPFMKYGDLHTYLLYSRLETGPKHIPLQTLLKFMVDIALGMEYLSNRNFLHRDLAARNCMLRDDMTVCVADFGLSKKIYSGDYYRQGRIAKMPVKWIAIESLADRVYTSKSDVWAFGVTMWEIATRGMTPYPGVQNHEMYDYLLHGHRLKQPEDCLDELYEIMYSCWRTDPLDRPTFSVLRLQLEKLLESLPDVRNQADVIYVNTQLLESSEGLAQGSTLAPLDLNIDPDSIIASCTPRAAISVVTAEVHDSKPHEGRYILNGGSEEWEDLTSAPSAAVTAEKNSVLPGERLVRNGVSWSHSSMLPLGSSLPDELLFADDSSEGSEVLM
Hck, sequence (P08631 whole entry, looked up): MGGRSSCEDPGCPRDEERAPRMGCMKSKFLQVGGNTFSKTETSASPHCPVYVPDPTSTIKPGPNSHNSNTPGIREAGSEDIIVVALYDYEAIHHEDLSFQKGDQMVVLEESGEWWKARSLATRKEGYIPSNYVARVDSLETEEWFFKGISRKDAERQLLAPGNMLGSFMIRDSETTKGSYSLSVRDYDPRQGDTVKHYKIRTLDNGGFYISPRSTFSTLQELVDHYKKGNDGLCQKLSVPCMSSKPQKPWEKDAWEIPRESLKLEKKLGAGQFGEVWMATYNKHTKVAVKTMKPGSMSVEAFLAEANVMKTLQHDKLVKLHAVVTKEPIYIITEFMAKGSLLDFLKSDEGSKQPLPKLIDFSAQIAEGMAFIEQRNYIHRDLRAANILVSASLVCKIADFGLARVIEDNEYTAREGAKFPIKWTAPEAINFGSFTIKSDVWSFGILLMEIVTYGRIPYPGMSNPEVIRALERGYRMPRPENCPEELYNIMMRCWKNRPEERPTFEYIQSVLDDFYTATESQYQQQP
EPHB1, sequence (P54762 whole entry, looked up): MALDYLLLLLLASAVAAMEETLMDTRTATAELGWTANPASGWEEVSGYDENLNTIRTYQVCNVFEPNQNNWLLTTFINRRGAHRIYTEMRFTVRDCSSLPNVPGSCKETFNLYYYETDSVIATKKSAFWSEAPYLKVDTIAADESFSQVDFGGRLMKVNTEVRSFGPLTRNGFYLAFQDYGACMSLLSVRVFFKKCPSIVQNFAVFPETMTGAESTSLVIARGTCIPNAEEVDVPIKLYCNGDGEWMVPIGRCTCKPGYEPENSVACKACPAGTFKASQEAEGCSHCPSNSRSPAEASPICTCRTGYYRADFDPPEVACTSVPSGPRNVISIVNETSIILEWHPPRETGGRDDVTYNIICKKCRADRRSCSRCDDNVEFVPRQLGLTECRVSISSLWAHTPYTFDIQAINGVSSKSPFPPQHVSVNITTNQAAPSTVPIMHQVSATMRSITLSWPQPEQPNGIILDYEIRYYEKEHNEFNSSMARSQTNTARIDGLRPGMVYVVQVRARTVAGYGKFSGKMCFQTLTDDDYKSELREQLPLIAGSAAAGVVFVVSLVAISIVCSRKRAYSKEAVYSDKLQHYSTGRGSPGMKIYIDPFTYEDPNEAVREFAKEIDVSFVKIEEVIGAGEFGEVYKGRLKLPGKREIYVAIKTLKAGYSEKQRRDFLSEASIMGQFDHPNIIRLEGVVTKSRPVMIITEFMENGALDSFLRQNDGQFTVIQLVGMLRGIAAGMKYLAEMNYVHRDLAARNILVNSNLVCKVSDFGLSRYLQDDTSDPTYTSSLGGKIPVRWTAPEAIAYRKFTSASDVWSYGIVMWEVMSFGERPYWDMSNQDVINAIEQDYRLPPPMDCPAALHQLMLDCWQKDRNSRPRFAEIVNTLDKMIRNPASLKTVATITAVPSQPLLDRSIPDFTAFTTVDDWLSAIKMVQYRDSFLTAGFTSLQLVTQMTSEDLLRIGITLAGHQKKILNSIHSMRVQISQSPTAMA
FGFR1, sequence (P11362 whole entry, looked up): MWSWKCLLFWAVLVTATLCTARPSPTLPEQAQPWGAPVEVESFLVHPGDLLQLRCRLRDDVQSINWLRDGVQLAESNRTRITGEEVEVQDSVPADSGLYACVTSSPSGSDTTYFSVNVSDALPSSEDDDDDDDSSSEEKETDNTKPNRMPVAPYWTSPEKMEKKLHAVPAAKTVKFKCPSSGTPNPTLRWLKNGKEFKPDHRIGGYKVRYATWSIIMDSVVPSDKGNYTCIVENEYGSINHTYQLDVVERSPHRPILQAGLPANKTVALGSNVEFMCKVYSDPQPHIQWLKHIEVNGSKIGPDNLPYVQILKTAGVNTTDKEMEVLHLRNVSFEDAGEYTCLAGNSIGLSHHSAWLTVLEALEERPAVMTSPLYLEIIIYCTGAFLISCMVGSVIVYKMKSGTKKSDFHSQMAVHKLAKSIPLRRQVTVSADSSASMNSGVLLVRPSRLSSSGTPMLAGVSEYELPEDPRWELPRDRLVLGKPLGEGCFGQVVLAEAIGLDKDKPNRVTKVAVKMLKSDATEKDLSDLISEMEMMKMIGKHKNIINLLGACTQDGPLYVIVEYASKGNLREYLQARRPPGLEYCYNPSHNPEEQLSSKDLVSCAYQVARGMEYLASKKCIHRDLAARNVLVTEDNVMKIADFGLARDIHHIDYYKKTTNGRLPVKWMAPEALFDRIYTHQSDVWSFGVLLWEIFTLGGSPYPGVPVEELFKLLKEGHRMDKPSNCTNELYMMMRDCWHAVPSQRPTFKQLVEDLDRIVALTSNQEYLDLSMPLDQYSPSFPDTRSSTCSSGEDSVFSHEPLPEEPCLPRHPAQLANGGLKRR

Sequence	phosphorylation enrichment (EPHB1)	phosphorylation enrichment (Fes)	phosphorylation enrichment (AncSZ)	phosphorylation enrichment (Hck)	phosphorylation enrichment (Fer (mouse))	phosphorylation enrichment (MERTK)	phosphorylation enrichment (c-Abl (mouse))	phosphorylation enrichment (FGFR1)	phosphorylation enrichment (Jak2)	phosphorylation enrichment (EPHB2)	phosphorylation enrichment (FGFR3)	phosphorylation enrichment (c-Src)	phosphorylation enrichment (Fyn)	SH2 binding enrichment (c-Src SH2)	SH2 binding enrichment (Grb2 SH2)	SH2 binding enrichment (SHP2-C SH2)
AERKLYRNVML [ZNF569_Y33_Q29E]	0.365	0.519	0.45	0.319	0.359	0.383	0.453	0.367	0.653	0.408	0.407	0.312	0.337	1.24	1.76	1.65
TLLERYGMTEI [ACSF3_Y355]	0.415	0.863	0.621	0.392	0.42	0.342	0.516	0.404	0.565	0.516	0.564	0.418	0.387	0.462	0.907	0.866
ILTYKYLQIPM [KIT_Y547_K550I]	0.7	0.997	1.11	0.483	0.389	0.406	0.706	0.785	0.817	0.631	0.807	0.396	0.422	0.929	0.893	3.97
REQREYLEQLN [CCDC88B_Y1277_D1279E]	0.54	0.939	1.18	0.706	0.523	0.58	0.786	0.611	1.15	0.559	0.755	0.529	0.531	0.52	0.679	0.73
LFCLHYFHRTF [SRD5A2_Y91_V89L]	0.9	1.93	1.85	0.494	0.888	0.66	1.21	0.71	1.78	0.541	1.46	0.879	1.07	1.33	1.48	1.62
LDPMVYMNDTS [PTK2B_Y834_K838T]	0.494	1.11	0.958	0.728	0.787	0.7	1.32	0.64	1.48	0.734	0.708	0.811	0.588	1.05	3.37	0.668
SARHHYESLQT [BIN1_Y157]	0.431	0.564	0.532	0.446	0.499	0.455	0.636	0.445	0.479	0.374	0.396	0.447	0.36	34.4	0.854	0.952
GEVLVYVEDPA [FLNA_Y319]	0.798	1.41	1.33	0.589	0.85	0.478	0.917	0.694	1.34	0.728	0.81	0.636	0.529	0.45	0.706	0.553
TSQSQYFSFRE [CCDC170_Y323]	0.315	0.891	0.745	1.72	0.461	0.818	0.604	1.62	1.29	0.368	1.49	4.89	3.07	0.796	1.15	0.999
NAMRRHIEEFQ [MNS1_Y244_Y244H]	0.398	0.741	0.634	0.366	0.346	0.469	0.628	0.348	0.672	0.411	0.497	0.347	0.367	0.435	0.676	0.636
RSAGKYDVFFI [MECP2_Y120_L124F_YF]	0.651	1.09	1.03	0.642	0.519	0.722	0.796	1.02	1.38	0.773	1.53	0.751	0.678	1.11	1.28	0.794
SGPRRYTIATL [TTR_Y125_A129T]	1.36	0.44	0.472	0.372	0.361	0.425	0.39	0.432	1.03	0.344	0.398	0.375	0.377	0.539	0.803	0.723
AGTILSHAHLD [ASS1_Y291_Y291S]	0.788	0.847	0.75	0.412	0.374	0.289	0.622	0.364	0.707	0.459	0.546	0.384	0.367	0.374	0.696	0.55
DVVKDYAFVHM [RBM14_Y114]	7.47	0.933	0.929	0.435	2.58	0.574	0.659	3.87	0.661	5.38	2.45	0.466	0.419	0.472	0.823	0.608
DTFDPYLDVAL [USP36_Y268_YF]	0.641	1.24	1.18	0.701	1.52	0.557	0.833	0.658	1.25	0.622	0.857	0.712	0.704	0.414	0.707	0.953
WFKKFYDANYD [MAPRE2_Y158]	0.477	1.03	1.18	0.423	0.398	0.399	0.774	0.43	0.899	0.529	0.552	0.364	0.398	0.581	0.82	0.722
ILTFKYLQKPM [KIT_Y547_YF]	0.792	1.29	1.19	0.543	0.562	0.548	1.07	0.485	1.42	0.759	0.742	0.605	0.579	0.449	0.659	0.474
KTDVHYRSLGG [DYSF_Y1858]	0.329	0.515	0.468	0.371	0.335	0.377	0.426	0.334	0.48	0.371	0.511	0.359	0.364	0.472	0.74	0.649
AHARMYGVLPW [PLP1_Y207_D203H]	0.519	0.617	0.496	3.4	0.402	0.507	0.58	0.503	0.478	0.462	0.421	2.35	2.35	0.49	1.05	1.19
WDSSGYWTPEE [PAPPA2_Y908_C903W]	0.521	1.08	1.41	0.449	0.569	0.502	0.672	0.855	1.28	0.533	0.87	0.453	0.53	36.9	1.2	2.08
FTTIHYNFMCN [TP53_Y234_C229Y_YF]	0.74	1.4	1.03	0.63	0.565	0.495	0.987	0.682	1.24	0.65	0.887	0.455	0.496	0.634	1.08	0.658
PLGVPYLDKPP [JMJD7_Y31_A28G]	0.901	1.64	0.955	0.463	0.574	0.942	1.57	0.6	1.55	0.794	0.825	0.909	0.679	0.46	0.862	0.645
RGMVMYTSKDR [ZG16B_Y136]	0.623	0.857	0.941	0.614	0.413	0.528	0.428	0.523	0.744	0.597	0.645	0.533	0.493	0.648	0.697	0.584
